Target: T1, mouse recombinant FGF R3(IIIc)-Fc (mouse, UniProt Q61851 21-369)
T1 construct: FGF receptor 3, (IIIc) form, mouse, extracellular domain fused to IgG-Fc portion; also called FGFR3 (murine); source: bought: R&D Systems
T1 sequence (looked up): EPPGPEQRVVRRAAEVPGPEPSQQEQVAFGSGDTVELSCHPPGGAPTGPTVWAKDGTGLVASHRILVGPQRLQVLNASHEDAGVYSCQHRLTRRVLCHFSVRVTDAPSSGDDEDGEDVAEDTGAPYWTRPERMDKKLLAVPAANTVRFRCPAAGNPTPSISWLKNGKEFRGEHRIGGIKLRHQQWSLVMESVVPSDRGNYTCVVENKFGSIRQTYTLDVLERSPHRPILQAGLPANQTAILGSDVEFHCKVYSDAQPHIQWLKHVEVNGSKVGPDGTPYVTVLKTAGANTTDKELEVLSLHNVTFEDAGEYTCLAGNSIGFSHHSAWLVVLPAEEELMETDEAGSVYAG
Assay: SPR; Biacore 2000; FGFR/Fc fusion proteins immobilised onto a CM5 sensor chip via prebound protein A (1,000 RUs); FGF2 injected with or without the RNA aptamer APT-F2; for FGFR1: receptor 100 nmol/l, FGF2 100 nmol/l, heparin 100 nmol/l, APT-F2 150 nmol/l
Conditions: both partners purified

B1: murine FGF2 (ligand, UniProt P15655 10-154, looked up)
chain: PALPEDGGAAFPPGHFKDPKRLYCKNGGFFLRIHPDGRVDGVREKSDPHVKLQLQAEERGVVSIKGVCANRYLAMKEDGRLLASKCVTEECFFFERLESNNYNTYRSRKYSSWYVALKRTGQYKLGSKTGPGQKAILFLPMSAKS
notes: Fibroblast growth factor 2, mouse, recombinant; also called mouse FGF2; source: bought: PEPROTECH
Question: Does B1 bind?
Answer: binds
